Columns and labels:
[1] = target: DDB1 (UV-DDB subunit);DDB2 (UV-DDB subunit) (human;human) (UniProt Q16531+Q92466); assay: fluorescence polarisation; conditions: N at position 8 = THF abasic site
[2] = target: DDB1 (human wild-type DDB1) (human, UniProt Q16531 1-1140); assay: cryo-EM structure
Sequence of DDB1 (human wild-type DDB1) (Q16531 whole entry): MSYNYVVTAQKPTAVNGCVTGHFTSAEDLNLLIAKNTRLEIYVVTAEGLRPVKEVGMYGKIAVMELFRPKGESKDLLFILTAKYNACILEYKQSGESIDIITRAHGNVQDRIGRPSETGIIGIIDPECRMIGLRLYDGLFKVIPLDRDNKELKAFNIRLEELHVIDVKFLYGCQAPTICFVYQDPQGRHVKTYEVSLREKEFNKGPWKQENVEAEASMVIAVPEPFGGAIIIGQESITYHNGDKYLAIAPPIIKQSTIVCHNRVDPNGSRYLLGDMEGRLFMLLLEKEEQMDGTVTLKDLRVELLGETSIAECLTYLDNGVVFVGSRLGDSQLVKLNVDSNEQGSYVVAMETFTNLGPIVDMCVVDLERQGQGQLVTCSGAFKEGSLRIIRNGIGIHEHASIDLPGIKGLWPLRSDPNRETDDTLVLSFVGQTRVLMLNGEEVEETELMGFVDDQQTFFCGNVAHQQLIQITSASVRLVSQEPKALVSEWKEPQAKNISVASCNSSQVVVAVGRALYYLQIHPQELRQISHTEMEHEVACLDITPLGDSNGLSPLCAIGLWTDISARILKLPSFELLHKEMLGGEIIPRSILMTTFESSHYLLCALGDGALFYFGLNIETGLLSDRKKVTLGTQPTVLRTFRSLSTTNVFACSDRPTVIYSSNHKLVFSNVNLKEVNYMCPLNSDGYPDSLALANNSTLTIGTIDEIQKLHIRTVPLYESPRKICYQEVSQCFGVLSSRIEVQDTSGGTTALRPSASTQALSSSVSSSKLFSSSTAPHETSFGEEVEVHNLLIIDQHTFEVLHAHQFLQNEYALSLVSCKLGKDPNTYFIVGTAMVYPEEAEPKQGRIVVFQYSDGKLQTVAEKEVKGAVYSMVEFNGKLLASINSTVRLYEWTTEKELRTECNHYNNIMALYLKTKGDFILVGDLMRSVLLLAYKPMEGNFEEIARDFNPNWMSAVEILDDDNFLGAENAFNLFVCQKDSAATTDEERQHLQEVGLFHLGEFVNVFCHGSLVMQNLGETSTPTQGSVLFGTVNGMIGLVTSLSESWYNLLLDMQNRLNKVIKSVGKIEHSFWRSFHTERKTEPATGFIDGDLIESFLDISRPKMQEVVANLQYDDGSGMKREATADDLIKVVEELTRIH

Sequence of DDB1 (UV-DDB subunit);DDB2 (UV-DDB subunit) (human;human) (Q16531 whole entry, chain 1 of 2, one chain of several): as the sequence (Q16531 whole entry) above

## AATGAATNAAGCAGG / CCTGCTTTATTCATT [Cy5-15-bp-DNA-THF]
[1]
  Kd: 0.15 nM

B1: DDB2 (human wild-type DDB2) (natural protein)
chain: MAPKKRPETQKTSEIVLRPRNKRSRSPLELEPEAKKLCAKGSGPSRRCDSDCLWVGLAGPQILPPCRSIVRTLHQHKLGRASWPSVQQGLQQSFLHTLDSYRILQKAAPFDRRATSLAWHPTHPSTVAVGSKGGDIMLWNFGIKDKPTFIKGIGAGGSITGLKFNPLNTNQFYASSMEGTTRLQDFKGNILRVFASSDTINIWFCSLDVSASSRMVVTGDNVGNVILLNMDGKELWNLRMHKKKVTHVALNPCCDWFLATASVDQTVKIWDLRQVRGKASFLYSLPHRHPVNAACFSPDGARLLTTDQKSEIRVYSASQWDCPLGLIPHPHRHFQHLTPIKAAWHPRYNLIVVGRYPDPNFKSCTPYELRTIDVFDGNSGKMMCQLYDPESSGISSLNEFNPMGDTLASAMGYHILIWSQEEARTRK
[2]
  binding result: binds
